From the DeepSol protein solubility set

Assay: soluble on expression in E. coli; label from the status in PepcDB or PDB records

Soluble on expression in E. coli, not soluble:
MGSDKIHHHHHHMLKIGPIEMKNQVVLAPMAGVCNPAFRLIAKEFGAGLVCAEMVSDKAILHKNEKSLSMLYVDEREKPLSLQIFGGEKETLVEAAKFVDKNTNADIIDINMGCPVPKITKCDAGARWLLDPNKIYDMVSAVVDEVDKPVTVKMRIGWDEEHIYAVENAQAVERAGGAAVAVHGRTRVQMYEGTADWNIIREVKQAVGIPVIGNGDVKTPQDAKRMLDEIGVDGVMIGRAALGNPWMLYRTIHYLETGELLPDPTPREKMDVCMIHLDRLIKLKGENVAVREMRKHAAWYLKGLRGNGKIRDQINQFETREDVSSTLYAYIEELEAKMAEKSASVV, MGSDKIHHHHHHMLLALSTWSEIEERLKSSTSVVVPIGSNEQHGPTGLLGTDWLCPEIIAHEASKRASDKVLVAPTFNIGMAQHHLAFPGTIFLRPSTFIAAIGDWVRSLGAHGFTRIYFLNGHGGNVASIEAAFSEIYADYSFRQQRAPFALKLKNWWDLAGVNALANRQFPTGHGSHATPSEIAVTQWAYPETIKTAAYSPPIAPTGPIREALDFRARYADGRMGSDPAQATPEKGGELVSMAANALIEDLAAFAAERAPA, MGSDKIHHHHHHMLLIDKLSNHENFTNTEQRIADYILKNITDIPPMNIDKLSKVTYTSHSAVVRLTKKLGFEGFKDFKVAISEAVYSQTTNMNSVDANFPFDSNDSVSTISKKVAELSVESIQRTFAQLDERLIEEAANTIAKSERIFLFAQGDSQIRARSFQNKLVKLNRFAILGEEYSDEDWTAANLTKKDCAIFISYGGRISQYERMLTHFSENKIPSVVLTGNQKSPLIRLAQTAIVTTQNEYDFLKISTFSSQITFEYLLDTIFSVIYAKEYQQNIINLKNKFNLIQRGTLSEGLAKEHDSK, MGSDKIHHHHHHMLLKLLHYLRCPQCRSQLSLSEATVGDWVEQGQLLCTQCRRTYAITKGIAYLYVENEEWKQLAAEAAGWVQMAKDAGCYDQTGIDIDFRLPYVPIPPWIDIARAFDIVLNIVRPRPGAMVVDIGAGRGWAAKQFAIRGCHAVAVEINDDDQIGLGRSLALMQHANVQYDLLIASSQRLPLADESFDIVFASAALHHSSCLATLLSEAARVLRRGGKLIAIHEPCIADHVTPEQDAPNIAQETAYNIHESRPKLDDYRHALRHAGLQELALFNHELYGTSIEDMQQWAANHWLSLLTADQIAMLRRKRTPTLWRTIRILRSRLQQLPDTTLVPPQDWMDQYYRHVGGSLTIIAQKP, MGSDKIHHHHHHMLLMPTKDWRWEFNEEYGQLALSLDTQMSFLTAYKTKMLIPDALKGMKFSVEHAKFYIRMLERLPQLLTLSDAMIVQTALNATAAHFLLKPQMPKSWFFDVSDECVYFDLGKVFQLKNNQQSMLVLVVEVGLQSVLVMNLSAACQLSDNKSLGQFDTIKVMHDRLHPLSRAKQIVAA, MGSDKIHHHHHHMLLNLFNEMRAAKVPVSVRELLDLIDALKHRVVFADMDEFYYLARTIMVKDERHFDKFDRAFGAYFKGLEKLDDHLKALIPEEWLRKEFERLLTDEEKAQIQSLGGLDKLIEEFKKRLEEQKERHAGGNKWIGTGGTSPFGSGGFNPEGIRVGDAGKRQGKAAKVWDQREYKNLDDQVELGTRNIKIALRRLRKFAREGAAEELDIDGTIDHTAKDAGLLNIQMRPERRNTVKLLLLLDIGGSMDAHVKVCEELFSACKTEFKHLEYFYFHNFIYESVWKNNLRRSSERTATFDLLHKYGPDYKVVFVGDAAMAPYEITQAGGSVEHWNEEAGYVWMQRFMEKYKKLIWINPYPKDTWNYTASTGLVRELVKEQMYPLTLSGLEEGMRFLSRG, MGSDKIHHHHHHMLLTLSICNFRSFGTEATLDLQRRGFRTQHPRKDETWQENTWRRAAIFGANAAGKSNVLRALGQLKLAITHSLTNEHWVRELRDPHSLCTDEPTSFEVEYVFDDVRYRWGLTLNHSGVVEEFLEANLSSRWRRIFERTGNSLIFGSNTGISHAAKENIEQFMRPWALVFSAWNTVKTPGPFAGALQWWQTLLPVIMSNEADQHNRHQWLVQLAQKDPTWLSVLQNVVAVADVGINKIGIEEQAPDLVKKIELTIQPDGQAEITDQFDSDEITEYLRYLMFEHSDGIHTFSLPETQESQGTKAWMDLAIPALFALSVGGVLSIDEIDGSLHPLLVRELVSYFDNSELNPLGAQLLFSTHDLTLLGKYPAESLHRGEVWLVEKERSYSELIALDEFPIRDAHNIEKRYLQGTYGAVPISNTTELLHTLEVLREKYTKMKQQ, MGSDKIHHHHHHMLNAKLLKLPTAAQQHHHEHHQIVVGVRGQAELSIDGSGACLDTWKACLVPTEARHDYCGDQQNHVLVINVDPFCAALSTPLHSDYDKLMRLFEKPRTVQMDNRIQGLVQFAAGEFDRSPDNRALHQHLAASILHCMAERIVDRPPVSSNRNSLNPEDIRRYIVGNLHRKITVQDLAGVACLSVSRFHEIFRQVTGTTPHQFLLQTRLDQAVGLLSSTSLSVSEISYRTGFSSQSALTNALRKHRGITPSRLQLNEHVA, MGSDKIHHHHHHMLNMDLSQRVVINTADLEWQNSPAAGVLRKRLAREEAERGHATSIVKYQAGAKFNSHPHPLGEEILVLDGVFSDETGDYPAGTYLRNPEGFVHAPFSVQGCTLLVKLHQFQTTDSQQVAINTNETQWLPGHGQLQVMPLHQHGTESTALVKWPAGTHFQPHRHFGGEEIYVISGVFIDELGRYPAGTWIRSPHLSQHNPYVEQDTVILVKVGHL, MGSDKIHHHHHHMLPGIVVKPLKTFADERGFFTEIMRRDWDVFEDEILQANMSVTYPGIVRAWHKHERGQVDYFVCIGGAIKICAYDDETQELAEIVSTGKNLQVVRVPGHYWHGFKAIGVEPAVLVYFVSRLYDYENPDEVRRPWNDSTIVPAKINGREDDPRCGKPWDWFYPPHK, MGSDKIHHHHHHMLQLSEFEPEVLYAFPFRNEHPGTYVYHQHDFLELSIMLEGYSDYNVEGQWRRVVAGQALLFNPGIHHQETQPPHTQSLQLHIGFRHIALPGQVPNHLPFKDALISLDDYRAEFMANAQRIVAESQRPTAFGHALLIQAMVIEQLCWLLRSLPENSVSNDYTELHQGNVSRDQQALVNAATYYLDVHYNEDLTLGTVAASLHVSAAYLSRTFKAIQGETPISYLTRLRMQRAKQLLMQEAITVRQVAHAVGYQDPYYFSKVFKRYFGAAPTLIER, MGSDKIHHHHHHMLQPFLASADTFTQQHFANRHAILLKYPQSSAVTFAAAVWENSFHANALYFDVVGDVAWLPQLLEDLRQLADHHDRLQYSSYAAQSAVITQLQAKHFRAFRRTAMSDYRKVVATPEADVRSRSQLTSAQWHDVVQMSFANYVAAHADNPVTFNHATFEQQLAEAEDTQPSFLVENQQVQAYVFWFEDEPGALTSAWLGGQQFADIRRLLQTALFQVQARYSVVNGEFDDTDIHAWTVYQQLALPDPNPLISWQLLLDATRMP, MGSDKIHHHHHHMLSIAIAAEFELSEKIVETLEQTQLEIESLTIIEIKPFKEEQGIRFNNKAVVQIMPEEADWTEFNYVLFAGTIEHVDLLAKIADSGCIVIDVLGICASLANIPVVVPGINDDQLIELRQRNIVSLPNPQVTQCALAISNIVNSIHQLVVTSLLPASYVEAEQVAKLAGQTAQLLNGIPLDTEQQRLAFDVFPVQTQNLVIQLQKIYPQLENIVFHQIQVPVFYGMGQFVTALSDYLVDIESQLHFWQENELIQYHAEKLITPVTHGENENNEEKVKLHISTLSAAENKIEFWSVADEQHFNLALMAVKLLELIG, MGSDKIHHHHHHMLSLGLADSRAISKANSGSERHVREVIKRLSLRYKLYYLPTTHAFLDAISEDQLKEIKKFAKVPSFFEYLLDKKLGKVSLLRELFTFSPLAKELVREYEREIGILDFIYVPHTYRIQLMPSILFSKLSRGKYGMLLMTDPHNSLLEKESFFKCVNVWSKIWFSRKSAIEFCSFQRLQNIAFLLKAIKTKPSFISVMNKCALNYTGLPKYFNTKVLSPPHAFNNLALKYRNFDKEDYLVFLGRINTAKGANEALEVGKHVKLKMIGYKEQEFIVKQARSFGIEVIENVSEEEKFEILSKARALVLPSHQESFSVTILEALAVGTPVITYDLPSLTSTYNFKPVFFVKEFDVKGLVNTALEVYNMKKIEEMFNDERLEEFIKMHSSWDNVSNAVDKLITEAIQE, MGSDKIHHHHHHMLSLTEQLNRGPVVSDGAMATELEKRGVATNSALWSATAMLDHPDAIQAVHQSYLDAGAKIMTTNTYQANVPAFEQAGIAAVQARQLIQQAVTIAHTARDASHVTDAVIAGSIGPYGAYLADGSEYTGAYQLTPSAYQDFHRERLALIMAAGVDVLALETMPRLDEVQALVQLITTTWPQQPYWVSFSIKDPQTLCDGTSLAVAAKWVAAQPNVVAVGVNCTTLENIAPALTTLKAAVAVPLIVYPNSGDQYDPVTKTWQETHLSHQFASFVPQWLAAGARIIGGCCRTTPKDIATVARALSVSDSAKL, MGSDKIHHHHHHMLSRIAESLFWIGRYVERADGTARILDVHLERLNHLPTEERDNVARELLAVMGARPESDEFGLEELLHALAYDKQSATSIAGSLGAARENARRARETVSSGLWESLNTTYYGLNQHRKDVVGTYRFCHWVLERTAMVSGLADTTVSHDDSWLFLALGRSLERADMTARMLSTRDVLSAGMSWVNMLRCAGAYESFLRTRRAAFGDQHAAEFLLLDRLFPRSIVYALRDADECLAKLDPSAQRVGFINDARRIVGQARTFLEFHRTDDLMSELPEHMERVQKAVSQASDAISRKYFNQADELAWVGEVS, MGSDKIHHHHHHMLSRPVRILIADEIGLGKTIQALAIARYLELQGEAKKILILVPKILREQWKQEIRRLGGKPVVITNGSEVERKLLRKATFNNAAEYFVVSIDLAKSQNHSEKFSAIDWDLLIVDEVHNVTYNTQRYNFLKSLIEKSKEDLNIVFLSATPHRGNPKDYIERLRLLDPTLTADWNALDSEKFYRRTHGVLVFRRTKKVVNDLEKREIFKKCDFNAVIVDITEEEKRFFEELDEVLFEMVKDVHMNSPVALLAVLLRKRAASSYESALKTINNIIKNQYSGASGEDVLEDQIKQIFGLGYDEMELEENSEIDDLISSIINSVAKRYPLDKGQINALEKILKIGKAIGKNDSKLKTLAEVLAYHLKKNEKVIVFTEFKDTLEYLRNNLPTLLEQEGIHLSEEKDISVLHGGMKSEEIEKQVEKFANDGKLLISTDVASEGLNLQVANILINYEIPWSPIKLEQRVGRIWRLNQTKETIAYTLLLNHEADLQILESLYQKILNITDAVGTGPNVGKPVFGTRTLSGNFEYRLENVQDEETSDSPVSEFELMLSAIKRRNLDEQTKRIISTLKSLRTKIEEVVPLNTCNEIQEELNSVLLPDDMESEIVFEKLKKYISVFENSFINSIGSYLFKILTDRIHEPLLNEKCLKIAVKNESKEYRLFQVEVIDRGRKIYEYPVLIEIGGNVSPQLYRGTSLLEKLADVFSKEWFVIEWANPKEKMDIQTAKLIDRSAKDLQSIMDKHTDYDIKLNESLMKTDSLFRRLNTRSSEILRVEGLSDREFSVFKLLHPSILEILGLSLDSIELPPSDYEKWMERSFVPLEDILESERKAMEIVMDIEKKRLIEKYGESSDWKVEDVSLKEHYDIKVSEPEGEKYIEVKGHKPLWLSAELTAAEHRFANDNRDRYWIYIVSNLGGKKPVILKIFSPFDDEKRKIYLVHENKDIDITEIFGSTIKTKQRYVISLGQKIYRRR, MGSDKIHHHHHHMLTMIQQYHIKHLNFHKGKSLRSIAEETGHDFRTVKKYAEQTDFNEIRKPKRGRPSKLDPVKPIIDAWLKEDLNRPVKQRHTARRIYDRLCDEHQDIFNACERTVRTYVSARKKELYGEEEGYLPLEHPAGEAQVDFGEIVMIEQGQKVKGYELILSLPYSNAGYPQIFRGQNQECLLTGLKDIF
